This experiment deals with recombinant human cathepsin B (human, UniProt P07858 80-333). The experiment can be described thus: Western blot of recombinant human cathepsin B, goat anti-human IgG-HRP as secondary antibody. The text has this:
A: polyacrylamide gel electrophoresis of recombinant human cathepsin B (1) and of standards (2); B: Western blot—cathepsin B (1) stained with chimeric 2A2 antibody. Goat anti-human antibody (IgG) conjugated with horseradish peroxidase was used as a secondary antibody. As the substrate 0.05% diaminobenzidine (DAB) and 0.01% of H₂O₂ in 0.05M Tris/HCl buffer, pH 7.5 were used.
In general terms: A western blot detects proteins with antibodies after separation by electrophoresis.

B1: chimeric 2A2 antibody, expressed in Chinese hamster ovary (CHO) cells (antibody, V domains shown)
VH: QVQLQQSGAELVRSGASIKLSCTASGFNIKDYYMHWVKQRPEQGLEWIGWIDPENGDTEYAPKFRGKATMTADTSSKTAYLQLSSLTSEDTAVYYCNARRHGYYEMDYWGQGTSVTVSS
VL: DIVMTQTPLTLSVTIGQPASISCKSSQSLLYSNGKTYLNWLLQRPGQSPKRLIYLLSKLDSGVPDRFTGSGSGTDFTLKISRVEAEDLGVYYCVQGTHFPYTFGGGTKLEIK
notes: A secretion leader was used for expression and is not part of the mature protein; also called chimeric antibody 2A2; 2A2 chimeric antibody; not shown: human IgG1 heavy chain constant region (human Cgamma1 region from pUC/hIgG1); human kappa light chain constant region (human Ckappa gene from pUC/hCK)
B1: the binding result is reported as “binds”.

The values are drawn from patent US20050260207A1 (published 2005).
